Residue numbers refer to the chain shown, from its start.
How the values were obtained:
[1] = molecular target: T1, P450 17A1 R358Q variant (Homo sapiens, UniProt P05093, R358Q)
T1 sequence (P05093 1-508 R358Q): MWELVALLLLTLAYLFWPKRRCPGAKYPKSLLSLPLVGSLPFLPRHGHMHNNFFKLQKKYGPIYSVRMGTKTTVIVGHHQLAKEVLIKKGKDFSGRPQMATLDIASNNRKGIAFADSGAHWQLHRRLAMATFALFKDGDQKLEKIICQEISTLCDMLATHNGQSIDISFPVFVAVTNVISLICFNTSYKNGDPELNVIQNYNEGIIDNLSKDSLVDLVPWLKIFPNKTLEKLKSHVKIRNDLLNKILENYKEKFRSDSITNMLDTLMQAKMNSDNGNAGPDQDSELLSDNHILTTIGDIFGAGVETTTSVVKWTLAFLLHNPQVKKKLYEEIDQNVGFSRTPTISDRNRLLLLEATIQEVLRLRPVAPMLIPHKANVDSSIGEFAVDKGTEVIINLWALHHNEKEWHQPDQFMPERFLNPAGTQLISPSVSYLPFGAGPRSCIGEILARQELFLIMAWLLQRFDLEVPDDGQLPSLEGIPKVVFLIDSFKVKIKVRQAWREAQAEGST
Procedure: (§1) P450 catalytic activity assays to measure steroid hydroxylation and lyase reactions were carried out as described previously ([23], [37], [64]).
(§2) The reactions were initiated by adding an NADPH-regenerating system (final concentrations of 15 mM glucose 6-phosphate, 1.5 mM NADP^+, and 1 IU ml^−1 glucose 6-phosphate dehydrogenase) ([75]) and terminated by quenching and extracting with 2.0 ml CH2Cl2. Aliquots of the organic phases were dried and then dissolved in 100 μl of a CH3CN/H2O (1:1, v/v) mixture. […] The extraction procedure was then repeated, and the (Δ^4) reaction products were analyzed in a Waters Acquity UPLC system using a BEH C18 octadecylsilane column (2.1 mm × 100 mm, 1.7 μm). The reaction products were resolved using a mobile phase composed of solvents A (70% CH3OH, 30% H2O, v/v) and B (CH3CN), at a flow rate of 0.2 ml min^−1. The mobile phase linear gradient proceeded as follows: 0 to 1 min, 5% B; 4 min, 30% B; 4.5 min, 40% B; 4.55 to 6.75 min, 95% BA; and 7 to 10 min, 5% B. The reaction products were identified by coelution with commercial standards and quantified by the A243 peak areas. Steady-state kinetic parameters were estimated using nonlinear regression of hyperbolic fits in GraphPad Prism software, with equations used for kcat and the specificity constant kcat/Km ([76]): Y = (ksp ∗ X)/(1 + (ksp ∗ X/kcat)) and then deriving Km by division.

[2] = molecular target: T2, P450 17A1 R347H variant (Homo sapiens, UniProt P05093, R347H)
T2 sequence (P05093 1-508 R347H): T1 sequence (P05093 1-508 R358Q) with R347H, Q358R
Procedure: as §1, §2

[3] = molecular target: T3, WT P450 17A1 (Homo sapiens, UniProt P05093); format: biochemical; parameters: made in house; host or cells: Escherichia coli (P450 17A1 in JM109)
T3 sequence (P05093 1-508): T1 sequence (P05093 1-508 R358Q) with Q358R
Procedure: Figure S4. Stimulation of lyase activities by b5, T70C- b5, and NanoTemper Blue-T70C-b5. Catalytic assays for the lyase reactions were performed and analyzed as described in the main text.

[4] = system: P450 17A1; parameters: method as in PMID 30468857; settings: SPR; cited from earlier work

B1: b5: recombinant human cytochrome b5, unlabeled (protein)
chain: MAEQSDEAVKYYTLEEIQKHNHSKSTWLILHHKVYDLTKFLEEHPGGEEVLREQAGGDATENFEDVGHSTDAREMSKTFIIGELHPDDRPKLNKPPETLITTIDSSSS
[1]
  stimulation of lyase reactions: did not display b5 concentration-dependent stimulation
[2]
  stimulation of lyase reactions: did not display b5 concentration-dependent stimulation
[3]
  stimulation of lyase activities: stimulated by b5 in a concentration-dependent manner
[4]
  on-rate constants: 360 to 5000 M⁻¹ s⁻¹
